In publication PMC6289755 (Journal of molecular biology, 2018) one finds binding result and Kd data, which are given here for three molecules.

One series concerns the target TRIM25 7KA mutant (human, UniProt Q14258 1-630, K381A;K382A;K385A;K388A;K389A;K391A;K392A). The series is described as follows: SEC-MALS. Background: In gel filtration, larger molecules generally elute earlier.
Series [1] concerns the target T1, TRIM25 WT (human, UniProt Q14258 1-630). The series is described as follows: SEC-MALS.
The target of a further series is TRIM25 CCD (human, UniProt Q14258 189-379). The series is described as follows: EMSA. On the technique in general: A gel shift assay detects complexes by their altered migration in electrophoresis.
The next series deals with TRIM25 CCD+7K (human, UniProt Q14258 189-409). The series is described as follows: EMSA.
Series [2] deals with T1, TRIM25 WT. The series is described as follows: EMSA.
A further series deals with TRIM25 SPRY (human, UniProt Q14258 410-630). The experiment in a line: EMSA.
The target of a further series is TRIM25 CCD-SPRY (human, UniProt Q14258 189-630). The series is described as follows: EMSA.
A further series has as its target T2, TRIM25 7K peptide (human, UniProt Q14258 379-394).
T2 chain: PVKKVSKEEKKSKKPP
The experiment in a line: EMSA.

The target in another series is TRIM25 ΔSPRY (RBCC) (human, UniProt Q14258 1-379). The experiment in a line: EMSA.
The series “SEC-MALS” concerns the molecule itself. The experiment in a line: SEC-MALS.

T1 sequence (Q14258 whole entry): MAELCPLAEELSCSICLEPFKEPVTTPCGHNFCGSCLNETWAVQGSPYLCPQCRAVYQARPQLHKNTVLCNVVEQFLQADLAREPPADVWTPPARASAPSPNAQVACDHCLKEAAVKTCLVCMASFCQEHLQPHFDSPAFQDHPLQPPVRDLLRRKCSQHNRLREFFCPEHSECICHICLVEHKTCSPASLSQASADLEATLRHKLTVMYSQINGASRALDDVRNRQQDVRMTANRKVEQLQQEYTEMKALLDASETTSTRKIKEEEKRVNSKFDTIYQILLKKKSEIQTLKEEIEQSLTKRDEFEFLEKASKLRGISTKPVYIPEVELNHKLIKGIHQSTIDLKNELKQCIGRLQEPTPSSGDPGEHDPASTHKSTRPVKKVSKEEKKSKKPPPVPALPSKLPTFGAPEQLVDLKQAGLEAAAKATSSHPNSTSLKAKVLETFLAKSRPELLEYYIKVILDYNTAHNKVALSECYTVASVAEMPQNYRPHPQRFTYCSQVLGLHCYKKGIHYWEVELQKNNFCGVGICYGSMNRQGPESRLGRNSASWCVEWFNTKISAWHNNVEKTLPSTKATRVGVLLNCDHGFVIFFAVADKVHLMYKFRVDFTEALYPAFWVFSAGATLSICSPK
TRIM25 CCD+7K, sequence (Q14258 189-409): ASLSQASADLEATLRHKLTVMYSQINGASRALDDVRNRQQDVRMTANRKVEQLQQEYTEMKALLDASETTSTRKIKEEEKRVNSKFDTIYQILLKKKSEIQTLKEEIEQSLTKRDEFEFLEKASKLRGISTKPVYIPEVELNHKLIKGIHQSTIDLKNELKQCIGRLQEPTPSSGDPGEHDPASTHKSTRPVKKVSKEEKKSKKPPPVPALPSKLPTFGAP
TRIM25 CCD-SPRY, sequence (Q14258 189-630): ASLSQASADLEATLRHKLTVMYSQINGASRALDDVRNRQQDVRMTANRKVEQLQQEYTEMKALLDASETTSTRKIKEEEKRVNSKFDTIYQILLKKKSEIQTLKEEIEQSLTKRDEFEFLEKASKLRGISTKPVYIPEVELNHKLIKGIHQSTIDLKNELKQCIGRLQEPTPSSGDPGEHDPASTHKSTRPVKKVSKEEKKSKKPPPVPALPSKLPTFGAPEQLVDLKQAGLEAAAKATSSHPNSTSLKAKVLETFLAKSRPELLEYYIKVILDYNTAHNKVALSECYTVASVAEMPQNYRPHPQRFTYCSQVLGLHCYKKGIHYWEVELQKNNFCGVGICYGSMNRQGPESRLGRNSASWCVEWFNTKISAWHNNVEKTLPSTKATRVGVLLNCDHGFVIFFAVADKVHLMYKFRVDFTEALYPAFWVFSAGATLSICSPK

B1: 56-bp dsRNA (dsRNA)
RNA 1: AUGGCUAGCUGGAGCCACCCGCAGUUCGUACAAGGAUGACGAUGACAAGGGUACAA
RNA 2: UUGUACCCUUGUCAUCGUCAUCCUUGUACGAACUGCGGGUGGCUCCAGCUAGCCAU
For B1, the values for the binding result in the series with TRIM25 7KA mutant and with TRIM25 WT [1] were “no binding” and “binds”, respectively.

B2: 28-bp dsRNA, fluorescent (dsRNA)
RNA 1: AUGGCUAGCUGGAGCCACCCGCAGUUCG
RNA 2: CGAACUGCGGGUGGCUCCAGCUAGCCAU
Turning to B2, the binding result in the series with TRIM25 CCD, in the series with TRIM25 CCD+7K, with TRIM25 7K peptide and with TRIM25 ΔSPRY (RBCC) was “no binding” throughout. Besides, the figures for the Kd with TRIM25 WT [2], in the series with TRIM25 SPRY and in the series with TRIM25 CCD-SPRY were 260 ± 30 nM, 3470 ± 1170 nM and 110 ± 20 nM, respectively.

B3: Full-length TRIM25 7KA mutant, purified (enzyme, human, UniProt Q14258 1-630, looked up)
chain: MAELCPLAEELSCSICLEPFKEPVTTPCGHNFCGSCLNETWAVQGSPYLCPQCRAVYQARPQLHKNTVLCNVVEQFLQADLAREPPADVWTPPARASAPSPNAQVACDHCLKEAAVKTCLVCMASFCQEHLQPHFDSPAFQDHPLQPPVRDLLRRKCSQHNRLREFFCPEHSECICHICLVEHKTCSPASLSQASADLEATLRHKLTVMYSQINGASRALDDVRNRQQDVRMTANRKVEQLQQEYTEMKALLDASETTSTRKIKEEEKRVNSKFDTIYQILLKKKSEIQTLKEEIEQSLTKRDEFEFLEKASKLRGISTKPVYIPEVELNHKLIKGIHQSTIDLKNELKQCIGRLQEPTPSSGDPGEHDPASTHKSTRPVAAVSAEEAASAAPPPVPALPSKLPTFGAPEQLVDLKQAGLEAAAKATSSHPNSTSLKAKVLETFLAKSRPELLEYYIKVILDYNTAHNKVALSECYTVASVAEMPQNYRPHPQRFTYCSQVLGLHCYKKGIHYWEVELQKNNFCGVGICYGSMNRQGPESRLGRNSASWCVEWFNTKISAWHNNVEKTLPSTKATRVGVLLNCDHGFVIFFAVADKVHLMYKFRVDFTEALYPAFWVFSAGATLSICSPK
On to B3, for which the binding result in the series “SEC-MALS” is given as “binds”.

One may read the Kd as the concentration at which binding is half-saturated. A lower Kd goes with tighter binding.
